From the supplement of paper PMC7877785
± gives the uncertainty stated by the source.

Assay: self-splicing fitness, log relative to wild type (ln ratio); higher = more splicing; Tetrahymena group I intron in knt gene, E. coli kanamycin selection, DiMSum; sequences stand for … in CUCUCU…GGAGGGAAAAGUUAUCAGGCAUGCACCUGGUAGCUAGUCUUUAAACCAAUAGAUUGCAUCGGUUUAAAAGGCAAGACCGUCAAAUUGCGGGAAAGGGGUCAACAGCCGUUCAGUACCAAGUCUCAGGGGAAACUUUGAGAUGGCCUUGCAAAGGGUAUGGUAAUAAGCUGACGGACAUGGUCCUAACCACGCAGCCAAGUCCUAAGUCAACAGAUCUUCUGUUGAUAUGGAUGCAGUUCACAGACUAAAUGUCGGUCGGGGAAGAUGUAUUCUUCUCAUAAGAUAUAGUCGGACCUCUCCUUAAUGGGAGCUAGCGGAUGAAGUGAUGCAACACUGGAGCCGCUGGGAACUAAUUUGUAUGCGAAAGUAUAUUGAUUAGUUUUGGAGUACUCGUGGUCG
How it was run: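 A randomised library covering all eight P1ex-region intron nucleotides was built with the intron in the knt kanamycin-resistance gene on pET-22b(+) and held in E. coli BL21(DE3). Cells were grown overnight at 37°C or 30°C on LB agar, with or without 25 μg/mL kanamycin, plus 100 μg/mL carbenicillin, 50 μM IPTG and 0.2% rhamnose, and pooled colonies were amplicon-sequenced on an Illumina HiSeq 2500. DiMSum fitness is the error-weighted combination of wild-type-normalised replicate fold changes, kanamycin versus none.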

| Sequence | self-splicing fitness (ln) (30 °C) | self-splicing fitness (ln) (37 °C) |
| --- | --- | --- |
| GGCAAGCAAUAUUACGGAGU | -2.62 ± 0.12 | -0.542 ± 0.1 |
| GGCAAGCAAUAUUACGGCCG | -1.09 ± 0.11 | 0.00962 ± 0.13 |
| GGCAAGCAAUAUUACGGGGA | -3.51 ± 0.26 | -1.31 ± 0.3 |
| GGCAAGCAAUAUUACGGGUG | -0.914 ± 0.055 | -0.195 ± 0.066 |
| GGCAAGCAAUAUUACGUACA | -0.414 ± 0.071 | 0.296 ± 0.094 |
| GGCAAGCAAUAUUACGUCUA | -0.593 ± 0.084 | 0.16 ± 0.085 |
| GGCAAGCAAUAUUACGUGAU | -0.97 ± 0.078 | -0.169 ± 0.092 |
| GGCAAGCAAUAUUACGUGCC |  | -1.47 ± 0.43 |
| GGCAAGCAAUAUUACGUGUC | -2.42 ± 0.11 | -3.08 ± 0.17 |
| GGCCAGCAAUAUUACGAAUA | -3.4 ± 0.36 | -2.71 ± 0.23 |
| GGCCAGCAAUAUUACGACCA | -1.46 ± 0.1 | -0.797 ± 0.11 |
| GGCCAGCAAUAUUACGACUG | -0.744 ± 0.12 | -0.348 ± 0.15 |
| GGCCAGCAAUAUUACGAGUC | -2.16 ± 0.14 | -1.24 ± 0.14 |
| GGCCAGCAAUAUUACGCACG | -1.18 ± 0.07 | -0.36 ± 0.082 |
| GGCCAGCAAUAUUACGCAUU | -0.554 ± 0.05 | 0.109 ± 0.067 |
| GGCCAGCAAUAUUACGCCAC | -4.58 ± 0.46 | -1.8 ± 0.49 |
| GGCCAGCAAUAUUACGCCUU | -2.04 ± 0.12 | -0.815 ± 0.097 |
| GGCCAGCAAUAUUACGCGGU | -3.63 ± 0.46 | -2.53 ± 0.34 |
| GGCCAGCAAUAUUACGCGUU | -0.164 ± 0.09 | 0.0494 ± 0.12 |
| GGCCAGCAAUAUUACGCUAA | -0.606 ± 0.09 | -0.303 ± 0.1 |
| GGCCAGCAAUAUUACGCUGU | -1.74 ± 0.08 | -1.37 ± 0.11 |
| GGCCAGCAAUAUUACGGAGU | -0.585 ± 0.063 | -0.166 ± 0.084 |
| GGCCAGCAAUAUUACGGAUG | -0.5 ± 0.08 | -0.503 ± 0.077 |
| GGCCAGCAAUAUUACGGCAG | -0.833 ± 0.058 | -0.191 ± 0.1 |
| GGCCAGCAAUAUUACGGCGU | -1.59 ± 0.098 | -0.69 ± 0.12 |

| Sequence | self-splicing fitness (ln) (30 °C) | self-splicing fitness (ln) (37 °C) |
| --- | --- | --- |
| GGCCAGCAAUAUUACGGUAU | -0.512 ± 0.06 | 0.47 ± 0.084 |
| GGCCAGCAAUAUUACGGUUG | -0.224 ± 0.062 | -0.166 ± 0.075 |
| GGCCAGCAAUAUUACGUAAU | -0.304 ± 0.098 | -0.62 ± 0.098 |
| GGCCAGCAAUAUUACGUGCA | -0.734 ± 0.078 | -0.196 ± 0.074 |
| GGCCAGCAAUAUUACGUGGA | -4.07 ± 0.25 | -2.49 ± 0.17 |
| GGCCAGCAAUAUUACGUGGC | -0.533 ± 0.25 | -1.69 ± 0.35 |
| GGCCAGCAAUAUUACGUUAU | -2.4 ± 0.13 | -0.702 ± 0.11 |
| GGCGAGCAAUAUUACGAACG | -1.57 ± 0.078 | 0.152 ± 0.091 |
| GGCGAGCAAUAUUACGAAGU | -2.81 ± 0.44 | -1.21 ± 0.19 |
| GGCGAGCAAUAUUACGAUGG | -2.32 ± 0.24 |  |
| GGCGAGCAAUAUUACGAUUA | -2.12 ± 0.22 | -1.44 ± 0.17 |
| GGCGAGCAAUAUUACGCUAA | -2.83 ± 0.32 | -1.02 ± 0.22 |
| GGCGAGCAAUAUUACGCUGC | -2.58 ± 0.39 | -0.462 ± 0.37 |
| GGCGAGCAAUAUUACGCUUC | -3.8 ± 0.34 | -2.53 ± 0.49 |
| GGCGAGCAAUAUUACGGAGU | -3.06 ± 0.4 | -1.68 ± 0.4 |
| GGCGAGCAAUAUUACGGAUG | -3.22 ± 0.19 | -1.7 ± 0.15 |
| GGCGAGCAAUAUUACGGCCU | -2.45 ± 0.23 |  |
| GGCGAGCAAUAUUACGGUCC |  | -2.99 ± 0.43 |
| GGCGAGCAAUAUUACGGUCG | -1.13 ± 0.13 | -0.98 ± 0.16 |
| GGCGAGCAAUAUUACGUAAG | -3.88 ± 0.38 | -1.39 ± 0.27 |
| GGCGAGCAAUAUUACGUACC | -1.44 ± 0.25 |  |
| GGCGAGCAAUAUUACGUAUG | -1.78 ± 0.14 | -1.01 ± 0.14 |
| GGCGAGCAAUAUUACGUCAC | -3.01 ± 0.23 |  |
| GGCGAGCAAUAUUACGUGGU | -4.31 ± 0.27 | -1.77 ± 0.16 |
| GGCUAGCAAUAUUACGAAAG | -2.44 ± 0.26 | -2.4 ± 0.44 |

| Sequence | self-splicing fitness (ln) (30 °C) | self-splicing fitness (ln) (37 °C) |
| --- | --- | --- |
| GGCUAGCAAUAUUACGACAC | -0.572 ± 0.11 | 0.6 ± 0.16 |
| GGCUAGCAAUAUUACGACGC | -0.655 ± 0.41 | 0.803 ± 0.43 |
| GGCUAGCAAUAUUACGCACU | -0.665 ± 0.1 | -0.592 ± 0.1 |
| GGCUAGCAAUAUUACGCCAG | -1.55 ± 0.23 |  |
| GGCUAGCAAUAUUACGCCCG | -4.06 ± 0.47 | -3.68 ± 0.26 |
| GGCUAGCAAUAUUACGCUGU | -3.44 ± 0.29 | -1.19 ± 0.21 |
| GGCUAGCAAUAUUACGGCAG | -1.12 ± 0.23 | -0.728 ± 0.38 |
| GGCUAGCAAUAUUACGGCGU | -0.171 ± 0.086 | -0.201 ± 0.094 |
| GGCUAGCAAUAUUACGGCUC | -3.26 ± 0.3 |  |
| GGCUAGCAAUAUUACGGGUG | -0.804 ± 0.094 | -0.739 ± 0.1 |
| GGCUAGCAAUAUUACGGUAG | -2.31 ± 0.27 | -0.259 ± 0.23 |
| GGCUAGCAAUAUUACGGUCG | 0.0358 ± 0.11 | -0.669 ± 0.12 |
| GGCUAGCAAUAUUACGUACA | -1.07 ± 0.12 | -0.185 ± 0.11 |
| GGCUAGCAAUAUUACGUCAU | -1.5 ± 0.082 | -0.278 ± 0.086 |
| GGCUAGCAAUAUUACGUCCC |  | -0.484 ± 0.43 |
| GGCUAGCAAUAUUACGUCGA | -1.19 ± 0.071 | -0.818 ± 0.093 |
| GGCUAGCAAUAUUACGUGAC | -1.84 ± 0.14 | -1.02 ± 0.16 |
| GGCUAGCAAUAUUACGUUUU | -0.476 ± 0.084 | -0.0101 ± 0.093 |
| GGGAAGCAAUAUUACGAGAU | -2.81 ± 0.25 | -2.8 ± 0.38 |
| GGGAAGCAAUAUUACGAGGA | -3.34 ± 0.48 | -2.24 ± 0.29 |
| GGGAAGCAAUAUUACGAUCU | -0.627 ± 0.27 | -0.134 ± 0.24 |
| GGGAAGCAAUAUUACGCACU | -1.78 ± 0.21 | -1.94 ± 0.2 |
| GGGAAGCAAUAUUACGCCAU | -3.31 ± 0.25 | -0.83 ± 0.25 |
| GGGAAGCAAUAUUACGCCUA | -0.134 ± 0.2 | -0.887 ± 0.28 |
| GGGAAGCAAUAUUACGCGGG | -1.49 ± 0.23 | -1.8 ± 0.25 |

| Sequence | self-splicing fitness (ln) (30 °C) | self-splicing fitness (ln) (37 °C) |
| --- | --- | --- |
| GGGAAGCAAUAUUACGCUCG | -0.703 ± 0.27 | -1.03 ± 0.18 |
| GGGAAGCAAUAUUACGGAAU |  | -1.67 ± 0.42 |
| GGGAAGCAAUAUUACGGGAC | -2.61 ± 0.21 | -3.45 ± 0.21 |
| GGGAAGCAAUAUUACGUUUA | -2.23 ± 0.22 | -1.51 ± 0.16 |
| GGGCAGCAAUAUUACGAAGA | -2.31 ± 0.21 | -0.958 ± 0.16 |
| GGGCAGCAAUAUUACGACAG | -2.72 ± 0.39 | -0.948 ± 0.32 |
| GGGCAGCAAUAUUACGACGG | -3.78 ± 0.35 | -1.4 ± 0.27 |
| GGGCAGCAAUAUUACGAUGG | -3.22 ± 0.35 |  |
| GGGCAGCAAUAUUACGCAUU | -0.0216 ± 0.078 | -0.129 ± 0.11 |
| GGGCAGCAAUAUUACGCGGC |  | -1.26 ± 0.38 |
| GGGCAGCAAUAUUACGCUCG | -0.812 ± 0.11 | -1.24 ± 0.14 |
| GGGCAGCAAUAUUACGGACU | -0.562 ± 0.07 | -0.255 ± 0.091 |
| GGGCAGCAAUAUUACGGCAU | 0.216 ± 0.12 | -0.928 ± 0.12 |
| GGGCAGCAAUAUUACGGGGC | -0.887 ± 0.22 | -1.9 ± 0.42 |
| GGGCAGCAAUAUUACGGGUA |  | -2.55 ± 0.35 |
| GGGCAGCAAUAUUACGUAAA | -0.819 ± 0.09 | -0.375 ± 0.11 |
| GGGCAGCAAUAUUACGUAGA | -1.53 ± 0.063 | -0.244 ± 0.083 |
| GGGCAGCAAUAUUACGUGCC |  | -0.519 ± 0.48 |
| GGGCAGCAAUAUUACGUGUG | -2.34 ± 0.14 | -1.26 ± 0.16 |
| GGGCAGCAAUAUUACGUUGA | -1.3 ± 0.081 | -0.64 ± 0.098 |
| GGGCAGCAAUAUUACGUUUG | -1.17 ± 0.098 | -0.133 ± 0.11 |
| GGGGAGCAAUAUUACGAAAC | -3.15 ± 0.42 | -0.654 ± 0.3 |
| GGGGAGCAAUAUUACGAACU | -2.75 ± 0.31 | -1.76 ± 0.27 |
| GGGGAGCAAUAUUACGAUCG | -1.44 ± 0.2 | -0.888 ± 0.3 |
